{
  "source": "patent US5534409",
  "about": "“Cytokine regulated transcription factor” (Ciba-Geigy Corporation)",
  "binders": {"B1": {"name": "bovine beta-casein MGF site (dsDNA)", "DNA 1": "AGATTTCTAGGAATTCAATCC", "DNA 2": "GGATTGAATTCCTAGAAATCT"}},
  "biological_target": "T1, MGF (mammary gland factor, STAT5), native from lactating mammary gland (Ovis aries, UniProt P42231 SEQ:1-794)",
  "T1 chain": "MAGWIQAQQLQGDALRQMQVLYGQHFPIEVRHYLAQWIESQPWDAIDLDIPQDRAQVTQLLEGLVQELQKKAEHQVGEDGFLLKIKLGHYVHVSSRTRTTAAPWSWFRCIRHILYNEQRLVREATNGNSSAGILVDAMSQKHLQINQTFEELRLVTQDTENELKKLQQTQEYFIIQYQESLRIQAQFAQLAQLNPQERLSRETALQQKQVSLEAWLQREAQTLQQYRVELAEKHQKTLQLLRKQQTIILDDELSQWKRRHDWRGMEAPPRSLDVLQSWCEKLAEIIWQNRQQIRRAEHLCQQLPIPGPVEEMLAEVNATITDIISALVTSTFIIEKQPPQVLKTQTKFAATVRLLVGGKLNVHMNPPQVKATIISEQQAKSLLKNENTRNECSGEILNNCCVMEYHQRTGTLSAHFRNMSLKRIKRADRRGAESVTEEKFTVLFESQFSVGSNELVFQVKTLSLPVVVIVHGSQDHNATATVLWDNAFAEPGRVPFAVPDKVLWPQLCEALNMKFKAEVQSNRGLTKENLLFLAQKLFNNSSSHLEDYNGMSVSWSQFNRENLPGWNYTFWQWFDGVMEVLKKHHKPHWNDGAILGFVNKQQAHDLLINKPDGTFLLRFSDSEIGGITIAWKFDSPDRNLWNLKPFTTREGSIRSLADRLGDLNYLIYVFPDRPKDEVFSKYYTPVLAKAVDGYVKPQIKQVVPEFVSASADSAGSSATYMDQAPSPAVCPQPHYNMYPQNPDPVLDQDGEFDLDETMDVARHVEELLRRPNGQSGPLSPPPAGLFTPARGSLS",
  "experiment": "EMSA; binds more efficiently than rat site; also used for DNA affinity column, eluted at 600 mM NaCl; binding abolished by tyrosine phosphatase PTP1B, not by PP1C or",
  "settings": "tags: none; 84 and 92 kDa bands, tyrosine phosphorylated",
  "data": [
    {"binder": "B1", "values": [
      {"measurement": "binding result", "result": "binds"}
    ]}
  ]
}
